Literature values as cited in patent US4287185A, “Method for the detection of viruses” (Suntory Ltd., priority 1978, dated 1981).

Details: mouse, in vivo

B1: neocarzinostatin (protein, UniProt P0A3R9 35-147, looked up)
Neocarzinostatin: AAPTATVTPSSGLSDGTVVKVAGAGLQAGTAYDVGQCAWVDTGVLACNPADFSSVTADANGSASTSLTVRRSFEGFLFDGTRWGTVDCTTAACQVGLSDAAGNGPEGVAISFN
notes: carcinostatic agent having 109 constituent amino acids, already put into clinical practice
In the case of B1, the “LD50 compared with that of SP (about 3.5 mg/Kg)” value is given as “almost the same”.
